Results reported in patent US20200024358A1 (published 2020).
Where a chain is given by its changes, count along the chain named.

T1: recombinant Human BCMA Fc Chimera (produced in-house via transient expression in HEK293-6E cells) (human, UniProt Q02223 1-54)
T1 construct: not shown: Fc part of the chimera
T1 sequence (looked up): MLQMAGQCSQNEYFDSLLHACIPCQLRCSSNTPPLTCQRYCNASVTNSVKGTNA

B1: CDR1-047 (other)
heavy: QIQLVQSGPELKKPGETVKISCKASGYTFTDYSINWVKRAPGKGLKWMGWINTETREPAYAYDFRGRFAFSLETSASTAYLQINNLKYEDTATYFCALDYSYAMDYWGQGTSVTVSSASTKGPSVFPLAPSSKSTSGGTAALGCLVKDYFPEPVTVSWNSGALTSGVHTFPAVLQSSGLYSLSSVVTVPSSSLGTQTYICNVNHKPSNTKVDKRVEPKSCGGGGSAVVTQEPSLTVSPGGTVTLTCGSSTGAVTTSNYANWVQQKPGKSPRGLIGGTNKRAPGVPARFSGSLLGGKAALTISGAQPEDEADYYCALWYSNHWVFGGGTKLTVLGGGGGSGGGGSGGGGSGGGGSEVQLVESGGGSVQPGGSLRLSCAASGFTFSTYAMNWVRQAPGKGLEWVGRIRSKANNYATYYADSVKGRFTISRDDSKNTLYLQMNSLRAEDTATYYCVRHGNFGDSYVSWFAYWGQGTTVTVSS
light: DIVLTQSPASLAMSLGKRATISCRASESVSVIGAHLIHWYQQKPGQPPKLLIYLASNLETGVPARFSGSGSGTDFTLTIDPVEEDDVAIYSCLQSRIFPRTFGGGTKLEIKRTVAAPSVFIFPPSDEQLKSGTASVVCLLNNFYPREAKVQWKVDNALQSGNSQESVTEQDSKDSTYSLSSTLTLSKADYEKHKVYACEVTHQGLSSPVTKSFNRGECGGGGSEIVMTQSPSTLSASVGDRVIITCQASEDIYSLLAWYQQKPGKAPKLLIYDASDLASGVPSRFSGSGSGAEFTLTISSLQPDDSATYYCQGNYGSSSSSSYGAVFGQGTKLTVLGGGGGSGGGGSGGGGSGGGGSEVQLVESGGGSVQPGGSLRLSCTVSGIDLSSYTMGWVRQAPGKGLEWVGIISSGGRTYYASWAKGRFTISRDTSKNTVYLQMNSLRAEDTATYYCARGRYTGYPYYFALWGQGTTVTVSS
notes: Trispecific Fab-scFv: anti-BCMA Fab, anti-CD3 scFv on the Fd, anti-PD-L1 scFv on the light chain
B2: CDR1-048 (other)
heavy: EVQLVESGGGSVQPGGSLRLSCAASGFTFSTYAMNWVRQAPGKGLEWVGRIRSKANNYATYYADSVKGRFTISRDDSKNTLYLQMNSLRAEDTATYYCVRHGNFGDSYVSWFAYWGQGTTVTVSSASTKGPSVFPLAPSSKSTSGGTAALGCLVKDYFPEPVTVSWNSGALTSGVHTFPAVLQSSGLYSLSSVVTVPSSSLGTQTYICNVNHKPSNTKVDKRVEPKSCGGGGSDIVLTQSPASLAMSLGKRATISCRASESVSVIGAHLIHWYQQKPGQPPKLLIYLASNLETGVPARFSGSGSGTDFTLTIDPVEEDDVAIYSCLQSRIFPRTFGGGTKLEIKGGGGSGGGGSGGGGSGGGGSQIQLVQSGPELKKPGETVKISCKASGYTFTDYSINWVKRAPGKGLKWMGWINTETREPAYAYDFRGRFAFSLETSASTAYLQINNLKYEDTATYFCALDYSYAMDYWGQGTSVTVSS
light: AVVTQEPSLTVSPGGTVTLTCGSSTGAVTTSNYANWVQQKPGKSPRGLIGGTNKRAPGVPARFSGSLLGGKAALTISGAQPEDEADYYCALWYSNHWVFGGGTKLTVLGTVAAPSVFIFPPSDEQLKSGTASVVCLLNNFYPREAKVQWKVDNALQSGNSQESVTEQDSKDSTYSLSSTLTLSKADYEKHKVYACEVTHQGLSSPVTKSFNRGECGGGGSEIVMTQSPSTLSASVGDRVIITCQASEDIYSLLAWYQQKPGKAPKLLIYDASDLASGVPSRFSGSGSGAEFTLTISSLQPDDSATYYCQGNYGSSSSSSYGAVFGQGTKLTVLGGGGGSGGGGSGGGGSGGGGSEVQLVESGGGSVQPGGSLRLSCTVSGIDLSSYTMGWVRQAPGKGLEWVGIISSGGRTYYASWAKGRFTISRDTSKNTVYLQMNSLRAEDTATYYCARGRYTGYPYYFALWGQGTTVTVSS
notes: Trispecific Fab-scFv: anti-CD3 Fab, anti-BCMA scFv on the Fd, anti-PD-L1 scFv on the light chain
B3: CDR1-049 (other)
heavy: EVQLVESGGGSVQPGGSLRLSCTVSGIDLSSYTMGWVRQAPGKGLEWVGIISSGGRTYYASWAKGRFTISRDTSKNTVYLQMNSLRAEDTATYYCARGRYTGYPYYFALWGQGTTVTVSSASTKGPSVFPLAPSSKSTSGGTAALGCLVKDYFPEPVTVSWNSGALTSGVHTFPAVLQSSGLYSLSSVVTVPSSSLGTQTYICNVNHKPSNTKVDKRVEPKSCGGGGSAVVTQEPSLTVSPGGTVTLTCGSSTGAVTTSNYANWVQQKPGKSPRGLIGGTNKRAPGVPARFSGSLLGGKAALTISGAQPEDEADYYCALWYSNHWVFGGGTKLTVLGGGGGSGGGGSGGGGSGGGGSEVQLVESGGGSVQPGGSLRLSCAASGFTFSTYAMNWVRQAPGKGLEWVGRIRSKANNYATYYADSVKGRFTISRDDSKNTLYLQMNSLRAEDTATYYCVRHGNFGDSYVSWFAYWGQGTTVTVSS
light: EIVMTQSPSTLSASVGDRVIITCQASEDIYSLLAWYQQKPGKAPKLLIYDASDLASGVPSRFSGSGSGAEFTLTISSLQPDDSATYYCQGNYGSSSSSSYGAVFGQGTKLTVLGTVAAPSVFIFPPSDEQLKSGTASVVCLLNNFYPREAKVQWKVDNALQSGNSQESVTEQDSKDSTYSLSSTLTLSKADYEKHKVYACEVTHQGLSSPVTKSFNRGECGGGGSDIVLTQSPASLAMSLGKRATISCRASESVSVIGAHLIHWYQQKPGQPPKLLIYLASNLETGVPARFSGSGSGTDFTLTIDPVEEDDVAIYSCLQSRIFPRTFGGGTKLEIKGGGGSGGGGSGGGGSGGGGSQIQLVQSGPELKKPGETVKISCKASGYTFTDYSINWVKRAPGKGLKWMGWINTETREPAYAYDFRGRFAFSLETSASTAYLQINNLKYEDTATYFCALDYSYAMDYWGQGTSVTVSS
notes: Trispecific Fab-scFv: anti-PD-L1 Fab, anti-CD3 scFv on the Fd, anti-BCMA scFv on the light chain
B4: CDR1-010 (other)
heavy: QIQLVQSGPELKKPGETVKISCKASGYTFTDYSINWVKRAPGKGLKWMGWINTETREPAYAYDFRGRFAFSLETSASTAYLQINNLKYEDTATYFCALDYSYAMDYWGQGTSVTVSSASTKGPSVFPLAPSSKSTSGGTAALGCLVKDYFPEPVTVSWNSGALTSGVHTFPAVLQSSGLYSLSSVVTVPSSSLGTQTYICNVNHKPSNTKVDKRVEPKSCGGGGSEIVMTQSPSTLSASVGDRVIITCQASEAIYSLLAWYQQKPGKAPKLLIYDASDLASGVPSRFSGSGSGAEFTLTISSLQPDDSATYYCQGNYGSSSSSSYGAVFGQGTKLTVLGGGGGSGGGGSGGGGSGGGGSEVQLVESGGGSVQPGGSLRLSCTVSGIDLSSYTMGWVRQAPGKGLEWVGIISSGGRTYYASWAKGRFTISRDTSKNTVYLQMNSLRAEDTATYYCARGRYTGYPYYFALWGQGTTVTVSS
light: DIVLTQSPASLAMSLGKRATISCRASESVSVIGAHLIHWYQQKPGQPPKLLIYLASNLETGVPARFSGSGSGTDFTLTIDPVEEDDVAIYSCLQSRIFPRTFGGGTKLEIKRTVAAPSVFIFPPSDEQLKSGTASVVCLLNNFYPREAKVQWKVDNALQSGNSQESVTEQDSKDSTYSLSSTLTLSKADYEKHKVYACEVTHQGLSSPVTKSFNRGECGGGGSAVVTQEPSLTVSPGGTVTLTCGSSTGAVTTSNYANWVQQKPGKSPRGLIGGTNKRAPGVPARFSGSLLGGKAALTISGAQPEDEADYYCALWYSNHWVFGGGTKLTVLGGGGGSGGGGSGGGGSGGGGSEVQLVESGGGSVQPGGSLRLSCAASGFTFSTYAMNWVRQAPGKGLEWVGRIRSKANNYATYYADSVKGRFTISRDDSKNTLYLQMNSLRAEDTATYYCVRHGNFGDSYVSWFAYWGQGTTVTVSS
B5: CDR1-055 (other)
heavy: QIQLVQSGPELKKPGETVKISCKASGYTFTDYSINWVKRAPGKGLKWMGWINTETREPAYAYDFRGRFAFSLETSASTAYLQINNLKYEDTATYFCALDYSYAMDYWGQGTSVTVSSASTKGPSVFPLAPSSKSTSGGTAALGCLVKDYFPEPVTVSWNSGALTSGVHTFPAVLQSSGLYSLSSVVTVPSSSLGTQTYICNVNHKPSNTKVDKRVEPKSCGGGGSQVQLVESGGGLVQPGGSLRLSCAASGKMSSRRCMAWFRQAPGKGLERVAKLLTTSGSTYLADSVKGRFTISRDNSKNTVYLQMNSLRAEDTAVYYCAADSFEDPTCTLVTSSGAFQYWGQGTLVTVSS
light: B4 light
notes: Trispecific: anti-BCMA Fab, anti-PD-L1 sdAb on the Fd, anti-CD3 scFv on the light chain
B6: CDR1-012 (other)
heavy: B4 heavy with A253D, D275A
light: B4 light
B7: CDR1-016 (other)
heavy: B4 heavy with A253D, R415A
light: B4 light
B8: CDR1-013 (other)
heavy: B4 heavy with A253D, N316A
light: B4 light
B9: CDR1-014 (other)
heavy: B4 heavy with A253D, T392A
light: B4 light
B10: CDR1-015 (other)
heavy: B4 heavy with A253D, G413A
light: B4 light
B11: CDR1-018 (other)
heavy: B4 heavy with A253D, Y459A
light: B4 light

Key:
[1] = target: T2, recombinant human PD-L1 His-tag protein (expressed after transient transfection in HEK293-6E) (human, UniProt Q9NZQ7 19-238, limits assumed); experiment: dual-binding ELISA: BCMA Fc coated, then PD-L1 His, anti-His detection
T2 construct: not shown: His-tag
T2 sequence (Q9NZQ7 19-238 limits assumed): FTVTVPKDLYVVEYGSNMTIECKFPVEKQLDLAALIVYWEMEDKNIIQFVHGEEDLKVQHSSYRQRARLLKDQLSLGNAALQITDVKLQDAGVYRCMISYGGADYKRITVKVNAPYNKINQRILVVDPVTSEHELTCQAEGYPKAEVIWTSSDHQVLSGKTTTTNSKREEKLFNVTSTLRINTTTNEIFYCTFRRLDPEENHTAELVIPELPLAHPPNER

[2] = target: T3, recombinant human CD3 epsilon His-tag protein (Novoprotein, Cat. No. C578) (human, UniProt P07766 23-126); experiment: dual-binding ELISA: BCMA Fc coated, then CD3 epsilon His, anti-His detection
T3 construct: Bought protein; not shown: His-tag
T3 sequence (P07766 23-126): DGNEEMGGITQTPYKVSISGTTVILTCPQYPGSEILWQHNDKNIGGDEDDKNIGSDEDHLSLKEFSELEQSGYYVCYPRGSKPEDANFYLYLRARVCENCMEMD

[3] = target: T1, recombinant Human BCMA Fc Chimera …; experiment: dual-binding ELISA: BCMA Fc coated, then CD3 epsilon His or PD-L1 His, anti-His detection
Protocol: Trispecific antibody molecules were tested for their ability to bind the different targets using a Dual-Binding ELISA. […] Simultaneous binding to antigen pairs was detected via an anti-His antibody (Abcam, Cat. No. ab1187).

[4] = target: T4, extracellular domain of human PD-L1 (Example 8) (human, UniProt Q9NZQ7 19-238); experiment: ELISA on coated extracellular domain of human PD-L1, serial dilutions
T4 construct: extracellular domain; also called PD-L1 antigen; immobilized PD-L1
T4 sequence (Q9NZQ7 19-238): as the sequence (Q9NZQ7 19-238 limits assumed) above
Protocol: Serial dilutions of the antibodies to final concentrations ranging from 0.5 ng/mL to 50 μg/ml were tested by ELISA for binding to the extracellular domain of human PD-L1 coated on a 96 well plate.

Row | Binder | binding result [1] | binding result [2] | binding result [3] | binding result [4]
1 | B1 | binds | binds | binds | 
2 | B2 | binds | binds | binds | 
3 | B3 | binds | binds | binds | 
4 | B4 |  |  |  | binds
5 | B5 | binds | binds | binds | 
6 | B6 |  |  |  | binds
7 | B7 |  |  |  | binds
8 | B8 |  |  |  | binds
9 | B9 |  |  |  | binds
10 | B10 |  |  |  | binds
11 | B11 |  |  |  | binds
